Molecular target: Rfa1-AB-Y193D (S. cerevisiae)
Assay: cell-based or functional assay

B1: S. cerevisiae Dna2-E675A (nuclease-dead) (enzyme, UniProt P38859 1-1522, looked up)
chain: MPGTPQKNKRSASISVSPAKKTEEKEIIQNDSKAILSKQTKRKKKYAFAPINNLNGKNTKVSNASVLKSIAVSQVRNTSRTKDINKAVSKSVKQLPNSQVKPKREMSNLSRHHDFTQDEDGPMEEVIWKYSPLQRDMSDKTTSAAEYSDDYEDVQNPSSTPIVPNRLKTVLSFTNIQVPNADVNQLIQENGNEQVRPKPAEISTRESLRNIDDILDDIEGDLTIKPTITKFSDLPSSPIKAPNVEKKAEVNAEEVDKMDSTGDSNDGDDSLIDILTQKYVEKRKSESQITIQGNTNQKSGAQESCGKNDNTKSRGEIEDHENVDNQAKTGNAFYENEEDSNCQRIKKNEKIEYNSSDEFSDDSLIELLNETQTQVEPNTIEQDLDKVEKMVSDDLRIATDSTLSAYALRAKSGAPRDGVVRLVIVSLRSVELPKIGTQKILECIDGKGEQSSVVVRHPWVYLEFEVGDVIHIIEGKNIENKRLLSDDKNPKTQLANDNLLVLNPDVLFSATSVGSSVGCLRRSILQMQFQDPRGEPSLVMTLGNIVHELLQDSIKYKLSHNKISMEIIIQKLDSLLETYSFSIIICNEEIQYVKELVMKEHAENILYFVNKFVSKSNYGCYTSISGTRRTQPISISNVIDIEENIWSPIYGLKGFLDATVEANVENNKKHIVPLAVKTGKSRSVSYEVQGLIYTLLLNDRYEIPIEFFLLYFTRDKNMTKFPSVLHSIKHILMSRNRMSMNFKHQLQEVFGQAQSRFELPPLLRDSSCDSCFIKESCMVLNKLLEDGTPEESGLVEGEFEILTNHLSQNLANYKEFFTKYNDLITKEESSITCVNKELFLLDGSTRESRSGRCLSGLVVSEVVEHEKTEGAYIYCFSRRRNDNNSQSMLSSQIAANDFVIISDEEGHFCLCQGRVQFINPAKIGISVKRKLLNNRLLDKEKGVTTIQSVVESELEQSSLIATQNLVTYRIDKNDIQQSLSLARFNLLSLFLPAVSPGVDIVDERSKLCRKTKRSDGGNEILRSLLVDNRAPKFRDANDDPVIPYKLSKDTTLNLNQKEAIDKVMRAEDYALILGMPGTGKTTVIAEIIKILVSEGKRVLLTSYTHSAVDNILIKLRNTNISIMRLGMKHKVHPDTQKYVPNYASVKSYNDYLSKINSTSVVATTCLGINDILFTLNEKDFDYVILDEASQISMPVALGPLRYGNRFIMVGDHYQLPPLVKNDAARLGGLEESLFKTFCEKHPESVAELTLQYRMCGDIVTLSNFLIYDNKLKCGNNEVFAQSLELPMPEALSRYRNESANSKQWLEDILEPTRKVVFLNYDNCPDIIEQSEKDNITNHGEAELTLQCVEGMLLSGVPCEDIGVMTLYRAQLRLLKKIFNKNVYDGLEILTADQFQGRDKKCIIISMVRRNSQLNGGALLKELRRVNVAMTRAKSKLIIIGSKSTIGSVPEIKSFVNLLEERNWVYTMCKDALYKYKFPDRSNAIDEARKGCGKRTGAKPITSKSKFVSDKPIIKEILQEYES
unwinding of 2.2-kbp-long dsDNA by Dna2-E675A, stimulation by the Rfa1-AB variant, against wild type Rfa1-AB: ~2.5 fold less efficient
